The supplement of paper PMC10126150
± gives the standard deviation of the averaged measurements.

System: ATP
Experiment: switch fluorescence ratio, 500 uM ATP over buffer (Cy3 cluster intensity, sum of 5 cycles each) (fold (ratio)); higher = stronger signal-on switching upon ATP binding; sequences stand for … in TCGTCGGCAGCGTCAGATGTGTATAAGAGACAGTTTTTTTTTTTTTTTTTTTTTTTTT…TC
Conditions: aptamer strand: ATP DNA aptamer (quencher-CACCTGGGGGAGTATTGCGGAGGAAGG + anchor), 100 nM annealed; ATP concentration: 500 uM
Outline: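 Cy3-labelled switching-strand clusters on a modified Illumina MiSeq flow-cell were annealed to 100 nM quencher-labelled ATP aptamer, imaged in selection buffer, then imaged after 15 min with 500 uM ATP at 22 °C. Five buffer/ATP cycles ran, with NaOH stripping and re-annealing between them. The fluorescence ratio is summed target-cycle over summed buffer-cycle Cy3 intensity per cluster, averaged per switch-domain sequence. Clusters outside 100-1000 RFU were excluded.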
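Also: ATP exposure 15 min at 22 °C before imaging.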

| Sequence | switch fluorescence ratio |
| --- | --- |
| TTTTTATATG | 0.999 ± 0.02 |
| TTTTTATCAA | 1.01 ± 0.041 |
| TTTTTATCGG | 1.01 ± 0.024 |
| TTTTTATTGG | 0.985 ± 0.025 |
| TTTTTATTTC | 1 ± 0.019 |
| TTTTTATTTT | 1.01 ± 0.074 |
| TTTTTCAACT | 1.03 ± 0.036 |
| TTTTTCAGGA | 0.975 ± 0.024 |
| TTTTTCAGGC | 0.969 ± 0.055 |
| TTTTTCATAA | 0.999 ± 0.027 |
| TTTTTCATCC | 1.18 ± 0.31 |
| TTTTTCATTT | 1.01 ± 0.023 |
| TTTTTCCAAC | 1.02 ± 0.012 |
| TTTTTCCCGC | 1.07 ± 0.053 |
| TTTTTCCTCT | 1.036 ± 0.0026 |
| TTTTTCGGCA | 1.31 ± 0.43 |
| TTTTTCTCAG | 1.01 ± 0.031 |
| TTTTTCTGGG | 0.977 ± 0.0099 |
| TTTTTCTTGT | 1.01 ± 0.047 |
| TTTTTCTTTT | 0.993 ± 0.029 |
| TTTTTGACTG | 0.994 ± 0.075 |
| TTTTTGAGAT | 0.994 ± 0.03 |
| TTTTTGAGCG | 1.04 ± 0.0024 |

| Sequence | switch fluorescence ratio |
| --- | --- |
| TTTTTGATGT | 0.994 ± 0.022 |
| TTTTTGCGGC | 0.999 ± 0.03 |
| TTTTTGCTGC | 0.999 ± 0.024 |
| TTTTTGGAGA | 0.994 ± 0.025 |
| TTTTTGGCCG | 1.06 ± 0.034 |
| TTTTTGGCTG | 0.9818 ± 0.0049 |
| TTTTTGGTTG | 1.01 ± 0.012 |
| TTTTTGGTTT | 1.02 ± 0.083 |
| TTTTTGTAGA | 1.01 ± 0.022 |
| TTTTTGTGTA | 0.969 ± 0.012 |
| TTTTTGTT | 0.99 ± 0.0068 |
| TTTTTGTTGG | 1 ± 0.034 |
| TTTTTGTTGT | 1.01 ± 0.052 |
| TTTTTGTTT | 0.988 ± 0.01 |
| TTTTTTAAAG | 0.99843 ± 0.00078 |
| TTTTTTACCT | 1.2 ± 0.015 |
| TTTTTTAGAA | 1.01 ± 0.025 |
| TTTTTTAGAC | 1.04 ± 0.08 |
| TTTTTTAGC | 1.02 ± 0.03 |
| TTTTTTAGCA | 1.02 ± 0.023 |
| TTTTTTAGGT | 0.99 ± 0.03 |
| TTTTTTAGTC | 1 ± 0.04 |
| TTTTTTAGTT | 0.992 ± 0.025 |

| Sequence | switch fluorescence ratio |
| --- | --- |
| TTTTTTATAG | 1 ± 0.038 |
| TTTTTTATGT | 0.995 ± 0.029 |
| TTTTTTATT | 0.963 ± 0.013 |
| TTTTTTATTA | 0.986 ± 0.023 |
| TTTTTTCAAC | 1.15 ± 0.26 |
| TTTTTTCACT | 1.17 ± 0.34 |
| TTTTTTCATT | 1.02 ± 0.052 |
| TTTTTTCCCA | 1.01 ± 0.011 |
| TTTTTTCTAT | 0.996 ± 0.067 |
| TTTTTTGAAA | 1 ± 0.054 |
| TTTTTTGACC | 1.02 ± 0.044 |
| TTTTTTGACT | 0.995 ± 0.04 |
| TTTTTTGAGA | 0.975 ± 0.017 |
| TTTTTTGATT | 1.01 ± 0.02 |
| TTTTTTGGGT | 0.994 ± 0.024 |
| TTTTTTGTTC | 1.14 ± 0.3 |
| TTTTTTGTTG | 0.987 ± 0.029 |
| TTTTTTT | 0.9671 ± 0.0074 |
| TTTTTTTGTA | 1.01 ± 0.042 |
| TTTTTTTTGT | 1 ± 0.035 |
| TTTTTTTTT | 1.01 ± 0.021 |
